Laboratory results reported in US9777041B2, “Protein nanofibers from self-assembling pentamers” (New York University, priority 2013, dated 2017).

Assays:
Type in all cases: physicochemical
[1] = ATR-FTIR secondary structure of solid-state protein; details: for Random, percent composition / α helix, percent composition / β sheet, percent composition: 10 μM protein in 50 mM PB
Method: Attenuated Total Reflectance Fourier Transform Infrared Spectroscopy (ATR-FTIR): ATR-FTIR experiments were performed using Perkin Elmer System 2000 FT-IR with DuraSamplIR II T diamond ATR accessory and equipped with a MCT-A detector. Approximately, 5 μL of peptide solution (10 μM in 50 mM PB, pH 4, 8, and 10) was added on the diamond ATR surface. The spectrum (128 scans) was measured at room temperature over a range of 4000-400 cm^−1 with 0.5 cm^−1 resolution. PeakFit software was used to process the data, which involved a 2nd derivative zero baseline correction of the amide I region between 1700-1600 cm^−1 and deconvolution of peaks with a Gaussian function. All readings represent the average of two trials.
To quantifying the secondary structure of the protein in its solid-state, ATR-FTIR experiments were conducted to evaluate secondary structure of insoluble Q fibers at pH 4, 8, and 10 (Table 8). The frequency measured in the regions of the amide I and amide II absorptions of a protein correlate to the secondary structural motifs within the protein, and were thereby used to assess conformation of the protein in its solid-state (FIGS. 20a-20d). Secondary structure conformation based on ATR-FTIR data for Q in 50 mM PB at pH 4, 8, and 10, and in the presence of curcumin at a 5:1 molar ratio with Q at pH 4 are shown in […]. Percent composition was determined from relative areas of peaks fit to spectra (FIGS. 20a-20d).
Secondary structure conformation based on ATR-FTIR data for 10 μM protein in 50 mM PB before and after templation of AuNPs is provided in Table 10. Percent composition was determined from relative areas of peaks fit to spectra (see spectra FIGS. 37a-37d, FIGS. 38a-38d).

[2] = Circular dichroism wavelength scans (secondary structure); details: for −θ222 × 10^3 / −θmin × 10^3: 10 μM protein; for random coil / α helices / β sheet: CD, K2D method
Method: Circular dichroism: Circular dichroism (CD) measurements were conducted on a Jasco J-815 CD spectrometer. Wavelength and temperature scans were conducted with 10 μM (6.3×10^−2 mg/mL) protein concentrations. The wavelength spectrum was measured over a range from 190 to 250 nm with a step size of 1 nm Mean residue ellipticity (MRE) was calculated from raw data according to the procedure described in Gunasekar et al. 2009. Secondary structure analysis of α-helical, β-sheet, and random coil content was calculated with the K2D method using DichroWeb software. Temperature scans of each protein were performed over a range of 20-85° C. with a temperature step of 1° C./min at 222 nm. Scans were also performed at of 2° C./min and 5° C./min to evaluate dependence of thermal melt signatures on scan speed. All measurements were made in duplicates of independently prepared proteins and data represents the average. Thermodynamic properties of wt and Q were determined through analysis of thermal melts. A two-state model was used, where assumptions included monophasic behavior and reversible melting behavior. These assumptions were confirmed experimentally by melting (from 20 to 85° C.) and cooling (from 85 to 20° C.) the proteins. Calculation of thermodynamic parameters including Tm, ΔG°, ΔH°, and ΔS° were performed according to the method described by Greenfield.
To assess the secondary structure of the proteins under acidic as well as neutral and basic conditions in solution, CD measurements were performed. […] The presence of residue P28 towards the center of Q may have influenced the secondary structure, showing decreased helical content when compared to wt at pH 4 and 10 (FIG. 16). The negative control, L, was completely unstructured, devoid of helical content at pH 4 (FIG. 11). […] As the pH increased, the helical content of soluble Q protein increased.
Mean residual ellipticities from circular dichroism measurements at pH 4, 8, and 10 for wt, L, and Q. The data presented in Table 5 represents the average and standard deviation of at least two replicates.

[3] = Zeta potential; details: 10 μM protein, pH 4
Method: Zeta potential: Zeta potential measurements were performed on a Zetasizer Nano Series model Nano Z590. 50 mM phosphate buffer at pH 4 was used to saturate the clear polycarbonate disposable zeta cell DTS1060C prior to injecting 750 μL protein samples at protein concentrations of 10 μM. The following settings were used for zeta potential measurements in the DTS (Nano) software: […] instrument settings, Smoluvchoski model, material protein, dispersant PBS, temperature of 25° C., viscosity 1.0200 cP, and dielectric constant of […]. Measurements were taken in triplicates, conducting 10 runs for each measurement, with a delay time of 2 seconds between each measurement.

[4] = Transmission electron microscopy of protein fibers; details: pH 4, 50 mM PB
Method: Transmission electron microscopy: A JEOL JEM-1400 transmission electron microscope (TEM) was used to study the supramolecular protein structure. […] After 1 minute, the grids were blotted using filter paper and rinsed with 3-4 drops Milli Q water to remove excess salts from the buffer. After blotting with filter paper, the sample was negatively stained by adding 3 μL of 1% filtered uranyl acetate, blotted using filter paper, and dried at room temperature for 10-15 minutes. ImageJ software was used to measure the fibers dimensions.

[5] = curcumin at 5:1 molar ratio, pH 4

For “Q: Q54 protein, SEQ ID NO:2, variant of COMPcc; coiled-coil that self-assembles into homopentamers and nanofibers (MRGSHHHHHHGSIEGRVKEITFLKNTAPQMLRELQETNAALQDVRELLRQQSKL)”, the “Random, percent composition” value ([1]; +AuNP (after templation)) was 27%, the “α helix, percent composition” value ([1]; +AuNP (after templation)) was 30% and the “β sheet, percent composition” value ([1]; +AuNP (after templation)) was 43%. The “Random, percent composition” value ([1]; before templation of AuNPs) was 0%, the “α helix, percent composition” value ([1]; before templation of AuNPs) was 65% and the “β sheet, percent composition” value ([1]; before templation of AuNPs) was 35%. For the same substance, the “α helix % composition” value [1, 5] was 79%, the “β sheet % composition” value [1, 5] was 10% and the “Random coil % composition” value ([1]; curcumin at 5:1 molar ratio, pH 4, 1640-1648 cm^−1) was 12%. For the same substance, the “β sheet % composition” value ([1]; pH 4, 50 mM PB, 1625-1640, 1675-1695 cm^−1) was 38%, the “α helix % composition” value ([1]; pH 4, 50 mM PB, 1648-1660 cm^−1) was 62% and the “α helix % composition” value ([1]; pH 8, 50 mM PB) was 63%. The “β sheet % composition” value ([1]; pH 8, 50 mM PB) was 37%, the “α helix % composition” value ([1]; pH 10, 50 mM PB) was 68% and the “β sheet % composition” value ([1]; pH 10, 50 mM PB) was 32%. For the same substance, the “double minimum, ellipticity at 206 nm” value ([2]; 206 nm, pH 4 (Table 5)) was −6.54×10^3 deg cm^2 dmol^−1, the “double minimum, ellipticity at 222 nm” value ([2]; 222 nm, pH 4 (Table 5)) was −3.71×10^3 deg cm^2 dmol^−1 and the “−θ222 × 10^3” value ([2]; pH 4) was 3.71 10^3 deg cm^2 dmol^-1. For the same substance, the “−θmin × 10^3” value ([2]; pH 4) was 6.54 10^3 deg cm^2 dmol^-1, the random coil ([2]; pH 4) was 55% and the α helices ([2]; pH 4) was 9%. For the same substance, the β sheet ([2]; pH 4) was 36%, the “−θ222 × 10^3” value ([2]; pH 8) was 6.63 10^3 deg cm^2 dmol^-1 and the “−θmin × 10^3” value ([2]; pH 8) was 7.79 10^3 deg cm^2 dmol^-1. For the same substance, the random coil ([2]; pH 8) was 57%, the α helices ([2]; pH 8) was 22% and the β sheet ([2]; pH 8) was 21%. The “−θ222 × 10^3” value ([2]; pH 10) was 6.76 10^3 deg cm^2 dmol^-1, the “−θmin × 10^3” value ([2]; pH 10) was 8.07 10^3 deg cm^2 dmol^-1 and the random coil ([2]; pH 10) was 57%. The α helices ([2]; pH 10) was 25%, the β sheet ([2]; pH 10) was 18% and the zeta potential ([3]; absence of curcumin) was 19.1±2.5 mV. For the same substance, the “zeta potential, maximum value” ([3]; curcumin concentration of 40 μM) was 25.2±0.8 mV, the “fiber formation seen by TEM” value [4] was “regularly forms fibers with high levels of structure” and the protofibril diameters [4] was 3.5±0.5 nm. For the same substance, the fiber diameters ([4]; listed as Q54) was 50-100 nm and the protofibril diameters ([4]; listed as Q54) was 3-4 nm.
